Measurements: patent publication US20160280786A1

B1: 4CTLAPMP02A5 (VHH)
VHH: EVQLVESGGGLVQAGGSLRLSCAASGRTNSTTLMGWSRRAPGKEREFVAAISGSGTLTSYADSVKGRFAISRDNAKNTVYLQMNSLKPEDTAIYYCAAGLTSWALIPSRTLTTWGQGTQVTVSS
B2: 4CTLAPMP02F2 (VHH)
VHH: EVQLMESGGGLVQTGGSLRLSCAASGRTFSNYTMGWFRQAPGKDREFVAAISRSGSLKAYADSVKGRFTPSRDNAKKMAYLQMNSLKPEDTAVYYCAAAPVPWGTRPSLFPYDSWGQGTQVTVSS
B3: 4CTLAPMP02F4 (VHH)
VHH: EVQLVESGGGLVQTGGSLRLSCAASGRTFSNYTMGWFRQAPGKDREFVAAISRSGALKAYADSVKGRFTPSRDNAKKMAYLQMNSLKPEDTAVYYCAAAPVPWGTRPSFFPYDSWGQGTQVTVSS
B4: 4CTLAPMP02G2 (VHH)
VHH: EVQLVESRGGLVQTGGSLRLSCAASGRTFSNYTMGWFRQAPGKDREFVAAISRSGSLKSYADSVKGRFTISRDNAKKMAYLQMNSLKPEDTAVYYCAAAPVPWGTRPSFFTYDSWGQGTQVTVSS
B5: 4CTLAPMP2G9 (VHH)
VHH: EVQLVKSGGQLVQAGGSLRLSCAATGRTYNSYPLGWFRQAPGKEREFVAAISASGTLRAYADSVKGRFTISRDSAKNTVYLQMNNLKPEDTAVYYCARARSVGWRASHHLSDYDNWGQGTQVTVSS
B6: 4CTLAPMP03C4 (VHH)
VHH: EVQLVESGGGLVQAGGSLRLSCAASGGTFSFYGMGWFRQAPGKEREFVADIRTSAGRTYYADSVKGRFTISRDNAKNTVYLQMNSLKPEDTAVYYCAAEMSGISGWDYWGQGTQVTVSS
B7: 4CTLAPMP06C10 (VHH)
VHH: EVQLVESGGGLVQAGGSLRLSCAASGRTFSNYTIAYFRQAPGREREFAAAISPHGTLRSFADSVKDRFTISRDNAKNTVWLQMNSLKLEDTAVYYCAADPSGWGLRQHSENEYPYWGLGTQVTVSS
B8: 4CTLAPMP11E3 (VHH)
VHH: EVQLVESGGGLVEPGGSLRLSCAASGSISSYNVMGWYRQAPGQQRDLVAHIASNGEIMYADSAKGRFTISRDNAKKTVYLQMNSLKPEDTAVYYCKLWVLGNDYWGQGTQVTVSS
B9: 4CTLAPMP11F1 (VHH)
VHH: EVQLVESGGGLVQAGGSLRLSCAASGGTFSFYGMGWFRQAPGKEQEFVADIRTSAGRTYYADSVKGRFTISRDNAKNTVYLQMNSLKPEDTAVYYCAAEMSGISGWDYWGQGTQVTVSS
B10: 4CTLAPMP12H2 (VHH)
VHH: EVQLVESGGGLVEPGGSLRLSCAASGSISSYNVMGWYRQAPGQQRDLVAHIASNGEIMYADSAKGRFTISRDNAKKTVYLQMNSLKPEDTAVYYCKLWVLGNDYWGQRTQVTVSS

Target: cynomolgus monkey CTLA4 (human CTLA4 cDNA with S13N, I17T and L105M) on stably transfected CHO-K1 cells (human cDNA mutated to the cynomolgus monkey extracellular domain) (UniProt P16410)
Experiment: FACS direct binding titration on CHO cells with cynomolgus CTLA4 (head prints IC50)

cynomolgus monkey CTLA4 (human CTLA4 cDNA with S13N, I17T and L105M) on stably transfected CHO-K1 cells (human cDNA mutated to the cynomolgus monkey extracellular domain), sequence (P16410 36-223, stated change not applied): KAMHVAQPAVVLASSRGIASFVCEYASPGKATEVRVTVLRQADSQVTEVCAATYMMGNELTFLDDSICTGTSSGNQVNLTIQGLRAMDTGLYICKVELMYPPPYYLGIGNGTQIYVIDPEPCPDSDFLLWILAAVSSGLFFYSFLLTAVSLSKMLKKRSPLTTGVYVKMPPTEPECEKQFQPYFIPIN

Point of comparison: B7, IC50 5.47 nM. Against it:
- B1 — within 1.5-fold, 7.74 nM
- B2 — 2.3-fold lower, 2.42 nM
- B3 — 2.3-fold lower, 2.36 nM
- B4 — 2.6-fold lower, 2.08 nM
- B5 — 2.1-fold lower, 2.66 nM
- B6 — within 1.5-fold, 6.73 nM
- B8 — within 1.5-fold, 4.5 nM
- B9 — within 1.5-fold, 5.51 nM
- B10 — within 1.5-fold, 5.65 nM
